Values belong to the binder of their own block, whether it stands above or below them. Starred links: 1 amine or outer side, 2 acyl side, 3 side chain; linkers in the order of their positions; H or OH if unused. Positions of bridges follow the written chain, without caps; N, C: chain ends. Non-standard residues stand in square brackets, D forms with d. No end group written: not given here. TATA = O=C(CC[*:1])N1CN(C(=O)CC[*:2])CN(C(=O)CC[*:3])C1; Phe(4-guanidino) = N=C(N)Nc1ccc(C[C@H](N)C(=O)O)cc1; hArg = N=C(N)NCCCC[C@H](N)C(=O)O; Agb = N=C(N)NCC[C@H](N)C(=O)O
Experiments:
[1] = biological target: T1, human β-FXIIa (HFXIIAB; Molecular Innovations) (human, UniProt P00748 354-362; P00748 373-615, limits assumed); experiment: protease inhibition assay
T1 construct: domain: catalytic domain; Bought; also called human b-FXIIa; human FXIIa

[2] = biological target: T1, human β-FXIIa (HFXIIAB; Molecular …); experiment: protease inhibition assay, fluorogenic substrate

T1 sequence (P00748 373-615 limits assumed, one chain of several): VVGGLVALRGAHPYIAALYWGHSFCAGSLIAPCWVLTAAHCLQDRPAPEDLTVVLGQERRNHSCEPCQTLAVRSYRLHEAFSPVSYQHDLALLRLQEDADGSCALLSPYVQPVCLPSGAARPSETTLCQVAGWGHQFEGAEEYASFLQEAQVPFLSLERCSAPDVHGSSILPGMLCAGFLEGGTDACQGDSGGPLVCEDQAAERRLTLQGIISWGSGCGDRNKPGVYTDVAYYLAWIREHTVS

B1: peptide 39 (peptide 2, Arg4 to homoarginine) (peptide)
peptide: H-RCF[hArg]LPCRQLRCRW-NH2
modifications: linker 2-7-12 via TATA
notes: Number tied to residue by the order of the list
fold reduction of affinity vs peptide 2 [1]: ≥ 5 fold

B2: peptide 41 (peptide 2, Arg4 to 4-guanidinophenylalanine) (peptide)
peptide: RCF[Phe(4-guanidino)]LPCRQLRCRW-NH2
modifications: linker 2-7-12 via TATA; N-terminus assumed
SMILES: CC(C)C[C@@H]1NC(=O)[C@H](CCC(N)=O)NC(=O)[C@H](CCCNC(=N)N)NC(=O)[C@@H]2CSCCC(=O)N3CN(CN(C3)C(=O)CCSC[C@H](NC(=O)[C@@H](N)CCCNC(=N)N)C(=O)N[C@@H](Cc3ccccc3)C(=O)N[C@@H](Cc3ccc(NC(=N)N)cc3)C(=O)N[C@@H](CC(C)C)C(=O)N3CCC[C@H]3C(=O)N2)C(=O)CCSC[C@@H](C(=O)N[C@@H](CCCNC(=N)N)C(=O)N[C@@H](Cc2c[nH]c3ccccc23)C(N)=O)NC(=O)[C@H](CCCNC(=N)N)NC1=O
notes: as for B1
fold reduction of affinity vs peptide 2 [1]: ≥ 5 fold

B3: peptide 7 (peptide 2, Phe3 to valine) (peptide)
peptide: RCVRLPCRQLRCRW-NH2
modifications: linker 2-7-12 via TATA; N-terminus assumed
SMILES: CC(C)C[C@@H]1NC(=O)[C@H](CCC(N)=O)NC(=O)[C@H](CCCNC(=N)N)NC(=O)[C@@H]2CSCCC(=O)N3CN(CN(C3)C(=O)CCSC[C@H](NC(=O)[C@@H](N)CCCNC(=N)N)C(=O)N[C@@H](C(C)C)C(=O)N[C@@H](CCCNC(=N)N)C(=O)N[C@@H](CC(C)C)C(=O)N3CCC[C@H]3C(=O)N2)C(=O)CCSC[C@@H](C(=O)N[C@@H](CCCNC(=N)N)C(=O)N[C@@H](Cc2c[nH]c3ccccc23)C(N)=O)NC(=O)[C@H](CCCNC(=N)N)NC1=O
notes: as for B1
fold reduction of activity vs peptide 2 [1]: > 10 fold

B4: peptide 11 (peptide 2, Leu5 to valine) (peptide)
peptide: RCFRVPCRQLRCRW-NH2
modifications: linker 2-7-12 via TATA; N-terminus assumed
SMILES: CC(C)C[C@@H]1NC(=O)[C@H](CCC(N)=O)NC(=O)[C@H](CCCNC(=N)N)NC(=O)[C@@H]2CSCCC(=O)N3CN(CN(C3)C(=O)CCSC[C@H](NC(=O)[C@@H](N)CCCNC(=N)N)C(=O)N[C@@H](Cc3ccccc3)C(=O)N[C@@H](CCCNC(=N)N)C(=O)N[C@@H](C(C)C)C(=O)N3CCC[C@H]3C(=O)N2)C(=O)CCSC[C@@H](C(=O)N[C@@H](CCCNC(=N)N)C(=O)N[C@@H](Cc2c[nH]c3ccccc23)C(N)=O)NC(=O)[C@H](CCCNC(=N)N)NC1=O
fold reduction of affinity vs peptide 2 [1]: > 50 fold

B5: peptide 21 (peptide 2, Gln9 to aspartate) (peptide)
peptide: RCFRLPCRDLRCRW-NH2
modifications: linker 2-7-12 via TATA; N-terminus assumed
SMILES: CC(C)C[C@@H]1NC(=O)[C@H](CC(=O)O)NC(=O)[C@H](CCCNC(=N)N)NC(=O)[C@@H]2CSCCC(=O)N3CN(CN(C3)C(=O)CCSC[C@H](NC(=O)[C@@H](N)CCCNC(=N)N)C(=O)N[C@@H](Cc3ccccc3)C(=O)N[C@@H](CCCNC(=N)N)C(=O)N[C@@H](CC(C)C)C(=O)N3CCC[C@H]3C(=O)N2)C(=O)CCSC[C@@H](C(=O)N[C@@H](CCCNC(=N)N)C(=O)N[C@@H](Cc2c[nH]c3ccccc23)C(N)=O)NC(=O)[C@H](CCCNC(=N)N)NC1=O
fold reduction of activity vs peptide 2 [1]: 54 fold

B6: peptide 8 (peptide 2, Phe3 to isoleucine) (peptide)
peptide: RCIRLPCRQLRCRW-NH2
modifications: linker 2-7-12 via TATA; N-terminus assumed
SMILES: CC[C@H](C)[C@@H]1NC(=O)[C@@H](NC(=O)[C@@H](N)CCCNC(=N)N)CSCCC(=O)N2CN3CN(C2)C(=O)CCSC[C@H](NC(=O)[C@@H]2CCCN2C(=O)[C@H](CC(C)C)NC(=O)[C@H](CCCNC(=N)N)NC1=O)C(=O)N[C@@H](CCCNC(=N)N)C(=O)N[C@@H](CCC(N)=O)C(=O)N[C@@H](CC(C)C)C(=O)N[C@@H](CCCNC(=N)N)C(=O)N[C@H](C(=O)N[C@@H](CCCNC(=N)N)C(=O)N[C@@H](Cc1c[nH]c2ccccc12)C(N)=O)CSCCC3=O
notes: as for B1
fold reduction of activity vs peptide 2 [1]: > 10 fold

B7: peptide 12 (peptide 2, Leu5 to isoleucine) (peptide)
peptide: RCFRIPCRQLRCRW-NH2
modifications: linker 2-7-12 via TATA; N-terminus assumed
SMILES: CC[C@H](C)[C@@H]1NC(=O)[C@H](CCCNC(=N)N)NC(=O)[C@H](Cc2ccccc2)NC(=O)[C@@H](NC(=O)[C@@H](N)CCCNC(=N)N)CSCCC(=O)N2CN3CN(C2)C(=O)CCSC[C@H](NC(=O)[C@@H]2CCCN2C1=O)C(=O)N[C@@H](CCCNC(=N)N)C(=O)N[C@@H](CCC(N)=O)C(=O)N[C@@H](CC(C)C)C(=O)N[C@@H](CCCNC(=N)N)C(=O)N[C@H](C(=O)N[C@@H](CCCNC(=N)N)C(=O)N[C@@H](Cc1c[nH]c2ccccc12)C(N)=O)CSCCC3=O
fold reduction of affinity vs peptide 2 [1]: > 50 fold

B8: peptide 26 (peptide 2, Leu10 to isoleucine) (peptide)
peptide: RCFRLPCRQIRCRW-NH2
modifications: linker 2-7-12 via TATA; N-terminus assumed
SMILES: CC[C@H](C)[C@@H]1NC(=O)[C@H](CCC(N)=O)NC(=O)[C@H](CCCNC(=N)N)NC(=O)[C@@H]2CSCCC(=O)N3CN(CN(C3)C(=O)CCSC[C@H](NC(=O)[C@@H](N)CCCNC(=N)N)C(=O)N[C@@H](Cc3ccccc3)C(=O)N[C@@H](CCCNC(=N)N)C(=O)N[C@@H](CC(C)C)C(=O)N3CCC[C@H]3C(=O)N2)C(=O)CCSC[C@@H](C(=O)N[C@@H](CCCNC(=N)N)C(=O)N[C@@H](Cc2c[nH]c3ccccc23)C(N)=O)NC(=O)[C@H](CCCNC(=N)N)NC1=O
fold reduction of activity vs peptide 2 [1]: 8 fold

Binder: H-RCF[homolysine]LPCRQLRCRW-NH2 (linker 2-7-12 via TATA) [peptide 38 (peptide 2, Arg4 to homolysine)]
fold reduction of affinity vs peptide 2 [1]: ≥ 5 fold

B9: peptide 40 (peptide 2, Arg4 to norarginine) (peptide)
peptide: RCF[Agb]LPCRQLRCRW-NH2
modifications: linker 2-7-12 via TATA
notes: as for B1
fold reduction of affinity vs peptide 2 [1]: ≥ 5 fold

B10: peptide 64 (FXII618, Arg1 to isoleucine) (peptide)
peptide: ICFRLPCRQLRCR-NH2
modifications: linker 2-7-12 via TATA; N-terminus assumed
SMILES: CC[C@H](C)[C@H](N)C(=O)N[C@H]1CSCCC(=O)N2CN3CN(C2)C(=O)CCSC[C@H](NC(=O)[C@@H]2CCCN2C(=O)[C@H](CC(C)C)NC(=O)[C@H](CCCNC(=N)N)NC(=O)[C@H](Cc2ccccc2)NC1=O)C(=O)N[C@@H](CCCNC(=N)N)C(=O)N[C@@H](CCC(N)=O)C(=O)N[C@@H](CC(C)C)C(=O)N[C@@H](CCCNC(=N)N)C(=O)N[C@H](C(=O)N[C@@H](CCCNC(=N)N)C(N)=O)CSCCC3=O
notes: as for B1
fold reduction of affinity vs peptide 1 [1]: > 5 fold

The remaining lines, values ahead:

fold reduction of affinity vs FXII618 [1]: ~200 fold
B11: peptide 85 (FXII618, Gln9 to glycine) (peptide)
peptide: RCFRLPCRGLRCR-NH2
modifications: linker 2-7-12 via TATA; N-terminus assumed
SMILES: CC(C)C[C@@H]1NC(=O)CNC(=O)[C@H](CCCNC(=N)N)NC(=O)[C@@H]2CSCCC(=O)N3CN(CN(C3)C(=O)CCSC[C@H](NC(=O)[C@@H](N)CCCNC(=N)N)C(=O)N[C@@H](Cc3ccccc3)C(=O)N[C@@H](CCCNC(=N)N)C(=O)N[C@@H](CC(C)C)C(=O)N3CCC[C@H]3C(=O)N2)C(=O)CCSC[C@@H](C(=O)N[C@@H](CCCNC(=N)N)C(N)=O)NC(=O)[C@H](CCCNC(=N)N)NC1=O

fold reduction of affinity vs peptide 1 [1]: > 5 fold
B12: peptide 65 (FXII618, Arg1 to valine) (peptide)
peptide: VCFRLPCRQLRCR-NH2
modifications: linker 2-7-12 via TATA; N-terminus assumed
SMILES: CC(C)C[C@@H]1NC(=O)[C@H](CCC(N)=O)NC(=O)[C@H](CCCNC(=N)N)NC(=O)[C@@H]2CSCCC(=O)N3CN(CN(C3)C(=O)CCSC[C@H](NC(=O)[C@@H](N)C(C)C)C(=O)N[C@@H](Cc3ccccc3)C(=O)N[C@@H](CCCNC(=N)N)C(=O)N[C@@H](CC(C)C)C(=O)N3CCC[C@H]3C(=O)N2)C(=O)CCSC[C@@H](C(=O)N[C@@H](CCCNC(=N)N)C(N)=O)NC(=O)[C@H](CCCNC(=N)N)NC1=O
notes: as for B1

fold reduction of affinity vs peptide 1 [1]: > 5 fold
B13: peptide 66 (FXII618, Arg1 to alanine) (peptide)
peptide: ACFRLPCRQLRCR-NH2
modifications: linker 2-7-12 via TATA; N-terminus assumed
SMILES: CC(C)C[C@@H]1NC(=O)[C@H](CCC(N)=O)NC(=O)[C@H](CCCNC(=N)N)NC(=O)[C@@H]2CSCCC(=O)N3CN(CN(C3)C(=O)CCSC[C@@H](C(=O)N[C@@H](CCCNC(=N)N)C(N)=O)NC(=O)[C@H](CCCNC(=N)N)NC1=O)C(=O)CCSC[C@H](NC(=O)[C@H](C)N)C(=O)N[C@@H](Cc1ccccc1)C(=O)N[C@@H](CCCNC(=N)N)C(=O)N[C@@H](CC(C)C)C(=O)N1CCC[C@H]1C(=O)N2
notes: as for B1

fold reduction of affinity vs FXII618 [1]: ~200 fold
B14: peptide 87 (FXII618, Leu10 to glycine) (peptide)
peptide: RCFRLPCRQGRCR-NH2
modifications: linker 2-7-12 via TATA; N-terminus assumed
SMILES: CC(C)C[C@@H]1NC(=O)[C@H](CCCNC(=N)N)NC(=O)[C@H](Cc2ccccc2)NC(=O)[C@@H](NC(=O)[C@@H](N)CCCNC(=N)N)CSCCC(=O)N2CN3CN(C2)C(=O)CCSC[C@H](NC(=O)[C@@H]2CCCN2C1=O)C(=O)N[C@@H](CCCNC(=N)N)C(=O)N[C@@H](CCC(N)=O)C(=O)NCC(=O)N[C@@H](CCCNC(=N)N)C(=O)N[C@H](C(=O)N[C@@H](CCCNC(=N)N)C(N)=O)CSCCC3=O

Ki [2]: 27.4 nM
B15: peptide 67 (FXII618, Arg1 to lysine) (peptide)
peptide: KCFRLPCRQLRCR-NH2
modifications: linker 2-7-12 via TATA; N-terminus assumed
SMILES: CC(C)C[C@@H]1NC(=O)[C@H](CCC(N)=O)NC(=O)[C@H](CCCNC(=N)N)NC(=O)[C@@H]2CSCCC(=O)N3CN(CN(C3)C(=O)CCSC[C@H](NC(=O)[C@@H](N)CCCCN)C(=O)N[C@@H](Cc3ccccc3)C(=O)N[C@@H](CCCNC(=N)N)C(=O)N[C@@H](CC(C)C)C(=O)N3CCC[C@H]3C(=O)N2)C(=O)CCSC[C@@H](C(=O)N[C@@H](CCCNC(=N)N)C(N)=O)NC(=O)[C@H](CCCNC(=N)N)NC1=O

Reference: patent publication US20180118786A1 (ECOLE POLYTECHNIQUE FEDERALE DE LAUSANNE EPFL, published 2018)
